Source: the Human Domainome abundance scans (Beltran et al. 2025)
± gives the uncertainty stated by the source.

B1: 1-phosphatidylinositol 4,5-bisphosphate phosphodiesterase gamma-2, residues 772 to 827; numbered along this chain, P16885 (parent)
chain: RTVKALYDYKAKRSDELSFCRGALIHNVSKEPGGWWKGDYGTRIQQYFPSNYVEDI

Variants of: B1
Assay: abundance fitness (aPCA) (normalised: wild type 0, dead -1); higher = more abundant; growth selection in yeast, the domain comes from the species named
Details: Homo sapiens

RTVKALYDYKTKRSDELSFCRGALIHNVSKEPGGWWKGDYGTRIQQYFPSNYVEDI [A11T] and RTVKALYDYKPKRSDELSFCRGALIHNVSKEPGGWWKGDYGTRIQQYFPSNYVEDI [A11P] are within error of each other in abundance fitness: -0.461 ± 0.092 for the first, -0.446 ± 0.27 for the second.

Going from RTVKALYDYKCKRSDELSFCRGALIHNVSKEPGGWWKGDYGTRIQQYFPSNYVEDI [A11C] to RTVKALYDYKAKRSDELSFCRGALIHNVSKEPGGWWFGDYGTRIQQYFPSNYVEDI [K37F], the abundance fitness rises from -0.819 ± 0.11 to -0.371 ± 0.21.

First: WTVKALYDYKAKRSDELSFCRGALIHNVSKEPGGWWKGDYGTRIQQYFPSNYVEDI [R1W]
Second: RTVKALYDYPAKRSDELSFCRGALIHNVSKEPGGWWKGDYGTRIQQYFPSNYVEDI [K10P]
The abundance fitness of the first is higher: 0.23 ± 0.16 for the first, -0.502 ± 0.12 for the second.

First: RTVKALYDYQAKRSDELSFCRGALIHNVSKEPGGWWKGDYGTRIQQYFPSNYVEDI [K10Q]
Second: RTVKALYDYKAVRSDELSFCRGALIHNVSKEPGGWWKGDYGTRIQQYFPSNYVEDI [K12V]
The abundance fitness of the first is higher: -0.002 ± 0.096 for the first, -0.217 ± 0.086 for the second.

RTVKALYDYKAERSDELSFCRGALIHNVSKEPGGWWKGDYGTRIQQYFPSNYVEDI [K12E] and RTVKALYDYKAKRSDELSFCRGALIHNVSKEPGGWWKGDYGTRQQQYFPSNYVEDI [I44Q] are within error of each other in abundance fitness: -0.206 ± 0.18 for the first, -0.246 ± 0.12 for the second.

Compared with RTVKALYDYKAKRSDELSFCRGALIHNVSKEPGGWWKGDYGTREQQYFPSNYVEDI [I44E], RTVKALYDYKAKRSDELSFCRGALIHNVSKEPGGWWKGDYGTRWQQYFPSNYVEDI [I44W] is lower in abundance fitness: -0.133 ± 0.091 for the first, -0.384 ± 0.081 for the second.

RTVKALYDYKAKRSDELSFCRGALIHNWSKEPGGWWKGDYGTRIQQYFPSNYVEDI [V28W] and RTVKALYDYKAKRSDELSFCRGALIHNCSKEPGGWWKGDYGTRIQQYFPSNYVEDI [V28C] are within error of each other in abundance fitness: -0.793 ± 0.17 for the first, -0.568 ± 0.19 for the second.

RTVKALYDYKAKRSDELSFCRGALIHNVSKEPGGWWKGDYGTRIQQYFPSNDVEDI [Y52D] and RTVKALYDYKAKRSDELSFCRGALIHNVSKEPGGWWKGDYGTRIQQYFPSNNVEDI [Y52N] are within error of each other in abundance fitness: -0.98 ± 0.35 for the first, -0.605 ± 0.21 for the second.

Going from RTVKALYDYKAKRSDELSFCRGALIHNVSKEPGGWWKGDYGTRIQQYFPSNEVEDI [Y52E] to RTVKALYDYKAKRSDELSFHRGALIHNVSKEPGGWWKGDYGTRIQQYFPSNYVEDI [C20H], the abundance fitness rises from -0.943 ± 0.47 to 0.151 ± 0.14.

First: RTVKALYDYKAKRSDELSFPRGALIHNVSKEPGGWWKGDYGTRIQQYFPSNYVEDI [C20P]
Second: RTVKALYDVKAKRSDELSFCRGALIHNVSKEPGGWWKGDYGTRIQQYFPSNYVEDI [Y9V]
The abundance fitness of the first is higher: 0.209 ± 0.085 for the first, -1.07 ± 0.33 for the second.

RTVKALYDLKAKRSDELSFCRGALIHNVSKEPGGWWKGDYGTRIQQYFPSNYVEDI [Y9L] and RTVKALYDYKAKRSDEASFCRGALIHNVSKEPGGWWKGDYGTRIQQYFPSNYVEDI [L17A] are within error of each other in abundance fitness: -0.923 ± 0.19 for the first, -0.922 ± 0.28 for the second.

Going from RTVKALYDYKAKRSDEWSFCRGALIHNVSKEPGGWWKGDYGTRIQQYFPSNYVEDI [L17W] to RTVKALYEYKAKRSDELSFCRGALIHNVSKEPGGWWKGDYGTRIQQYFPSNYVEDI [D8E], the abundance fitness rises from -0.884 ± 0.36 to -0.17 ± 0.09.

Compared with RTVKALYDYKAKRSDELSFCRGALIHNVSKEPGGWSKGDYGTRIQQYFPSNYVEDI [W36S], RTVKALYDYKAKRSDELSFCRGALIHNVSKEPGGWYKGDYGTRIQQYFPSNYVEDI [W36Y] is lower in abundance fitness: 0.22 ± 0.088 for the first, -0.368 ± 0.12 for the second.

RTVKALYDYKAKRSDELSFCRGALIHNVSKEPDGWWKGDYGTRIQQYFPSNYVEDI [G33D] and RTVKALYDYKAKRSDELSFCRGALIFNVSKEPGGWWKGDYGTRIQQYFPSNYVEDI [H26F] are within error of each other in abundance fitness: -0.168 ± 0.055 for the first, 0.012 ± 0.14 for the second.

RTVKALYDYKAKRSDELSFCRGALILNVSKEPGGWWKGDYGTRIQQYFPSNYVEDI [H26L] and RTVKALYDYKAKRSDELSFCRGALIHNVSKEPGGWWKGDIGTRIQQYFPSNYVEDI [Y40I] are within error of each other in abundance fitness: -0.081 ± 0.082 for the first, 0.107 ± 0.12 for the second.

First: RTVKALYDYKAKRSDELAFCRGALIHNVSKEPGGWWKGDYGTRIQQYFPSNYVEDI [S18A]
Second: RTVKALYDYKAKRSDELSFCRGANIHNVSKEPGGWWKGDYGTRIQQYFPSNYVEDI [L24N]
The abundance fitness of the first is lower: -0.862 ± 0.22 for the first, -0.212 ± 0.14 for the second.

Compared with RTVKALYDYKAKRSDELSFCRGAMIHNVSKEPGGWWKGDYGTRIQQYFPSNYVEDI [L24M], RTVKALYDYKAKRSDELSFCRGALIHNVSKEPGGWWKGDYGTRIQAYFPSNYVEDI [Q46A] is higher in abundance fitness: -0.207 ± 0.1 for the first, 0.053 ± 0.06 for the second.

RTVKALYDYKAKRSDELSFCRGALIHNVSKEPGGWWKGDYGTRIQQYFPSQYVEDI [N51Q] and RTVKALYDYKAKRSDELSFCRGALIHNVSKEPGGWWKGDYGTRIQQYFPSKYVEDI [N51K] are within error of each other in abundance fitness: -0.129 ± 0.087 for the first, -0.076 ± 0.069 for the second.

RTVKALYDYKAKRSDELSFCRGALIHNVSKEPGGWWKGDYGTRIQQYFPSWYVEDI [N51W] and RTVKALYDYKAKRSDELSFCRGALIHNVSKEDGGWWKGDYGTRIQQYFPSNYVEDI [P32D] are within error of each other in abundance fitness: -0.022 ± 0.054 for the first, -0.087 ± 0.14 for the second.

RTVKALYDYKAKRSDELSFCRGALIHNVSKERGGWWKGDYGTRIQQYFPSNYVEDI [P32R] and RTVKALYDYKAKRSDELSFCRGALIHNVSQEPGGWWKGDYGTRIQQYFPSNYVEDI [K30Q] are within error of each other in abundance fitness: -0.166 ± 0.085 for the first, -0.208 ± 0.081 for the second.

Going from RTVKALYDYKAKRSDELSFCRGALIHNVSWEPGGWWKGDYGTRIQQYFPSNYVEDI [K30W] to RTVKALYDYKAKRSDELSFCRGALIHNVSPEPGGWWKGDYGTRIQQYFPSNYVEDI [K30P], the abundance fitness rises from -0.293 ± 0.17 to 0.246 ± 0.094.

First: RTVKALYDYKAKRSDELSFCRGALIHNVSYEPGGWWKGDYGTRIQQYFPSNYVEDI [K30Y]
Second: RTVKALYDYKAKRSDELSFCRGALIHNVSKEPGGWWKGDYGTRIQQYFPSNYVEII [D55I]
The abundance fitness of the first is higher: 0.039 ± 0.086 for the first, -0.365 ± 0.29 for the second.

Going from RTVKALYDYKAKRSDELSFCRGALIHNVSKEPGGWWKGDYGTRIQQYFPSNYVEFI [D55F] to RTVKALYDYKAKRSDELSFCRGALIHNVSKEPGGWWKGDYGTRIQQYFPSNYVEMI [D55M], the abundance fitness rises from -0.202 ± 0.09 to 0.086 ± 0.14.

In the case of RTVKRLYDYKAKRSDELSFCRGALIHNVSKEPGGWWKGDYGTRIQQYFPSNYVEDI [A5R], the abundance fitness is reported as -0.896 ± 0.089.
